From patent US20210070881A1 (DENALI THERAPEUTICS, published 2021)
Where two headings read alike, the source gives them in different places.

What was measured:
[1] = biological target: T1, recombinant BACE1 (BACE1 extracellular domain, R&D Systems Cat#931-AS) (UniProt P56817 22-457); experiment: SPR Biacore
T1 construct: extracellular domain; also called BACE1 extracellular domain protein

[2] = biological target: T1, recombinant BACE1 (BACE1 extracellular …); experiment: SPR Biacore; remark: listed apart in the source
[3] = biological target: BACE1 in primary human neurons (human, UniProt P56817 46-501); experiment: cell-based or functional assay
Sequence of BACE1 in primary human neurons (P56817 46-501): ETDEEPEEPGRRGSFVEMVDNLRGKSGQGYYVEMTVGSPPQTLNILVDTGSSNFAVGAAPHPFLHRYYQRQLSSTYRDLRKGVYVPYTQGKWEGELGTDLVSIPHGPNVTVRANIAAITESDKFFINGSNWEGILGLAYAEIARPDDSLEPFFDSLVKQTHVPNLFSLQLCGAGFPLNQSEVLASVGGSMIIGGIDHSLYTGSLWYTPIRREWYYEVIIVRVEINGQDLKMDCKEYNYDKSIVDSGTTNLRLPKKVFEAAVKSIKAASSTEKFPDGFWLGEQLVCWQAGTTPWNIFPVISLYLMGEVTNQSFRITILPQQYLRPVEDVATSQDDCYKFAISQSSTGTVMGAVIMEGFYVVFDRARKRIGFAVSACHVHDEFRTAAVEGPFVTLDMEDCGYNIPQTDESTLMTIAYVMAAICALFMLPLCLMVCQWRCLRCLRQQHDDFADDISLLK

[4] = biological target: cellular BACE1 in CHOK1-huAPP cells; experiment: cell-based or functional assay
[5] = biological target: cellular BACE1 in CHOK1-huAPP cells; experiment: cell-based or functional assay; remark: listed apart in the source
[6] = biological target: cellular BACE1 in CHOK1-huAPP cells; experiment: cell-based or functional assay; remark: listed apart in the source
[7] = biological target: T1, recombinant BACE1 (BACE1 extracellular …); experiment: SPR Biacore T200, IgG captured, BACE1 analyte
Description: The affinity of chimeric IgG antibodies for recombinant BACE1 was determined by surface plasmon resonance using a Biacore™ T200 instrument. Biacore™ Series S CMS sensor chips were immobilized with monoclonal mouse anti-human IgG (Fc) antibody (e.g., using a human antibody capture kit from GE Healthcare). 1 μg/mL of antibody was captured for 1 minute on each flow cell and serial 3-fold dilutions of recombinant BACE1 were injected at a flow rate of 30 μL/min. Each sample was analyzed with a 3-minute association and a 10-minute dissociation. After each injection, the chip was regenerated using 3M MgCl₂. Binding response was corrected by subtracting the RU from a flow cell capturing an irrelevant IgG at similar density. A 1:1 Langmuir model of simultaneous fitting of kₒₙ and koff was used for analysis of kinetics.

[8] = biological target: T1, recombinant BACE1 (BACE1 extracellular …); experiment: SPR Biacore 8K, antibody captured, BACE1 analyte
Description: (§1) The binding affinities of the affinity matured humanized 2H8 variants for BACE1 were determined by surface plasmon resonance using a Biacore™ 8K instrument. […] The binding was monitored for 300 seconds and then dissociation was monitored for 600+ seconds in HBS-EP+ running buffer (GE Healthcare Life Sciences, BR100669). Binding response was corrected by subtracting the RU from a blank flow cell. A 1:1 Langmuir model of simultaneous fitting of kₒₙ and koff was used for kinetics analysis.

[9] = biological target: T1, recombinant BACE1 (BACE1 extracellular …); experiment: SPR Biacore 8K, antibody captured, BACE1 analyte; remark: listed apart in the source
Description: as §1

[10] = biological target: cellular BACE1 in CHOK1-huAPP cells; experiment: cell-based or functional assay; remark: listed apart in the source
human TfR [11] = biological target: T2, human TfR (human, UniProt P02786 89-760, limits assumed); experiment: soft-randomization libraries selected on TfR
T2 construct: Protein coated on ELISA plates; also called human transferrin receptor protein 1
T2 sequence (P02786 89-760 limits assumed): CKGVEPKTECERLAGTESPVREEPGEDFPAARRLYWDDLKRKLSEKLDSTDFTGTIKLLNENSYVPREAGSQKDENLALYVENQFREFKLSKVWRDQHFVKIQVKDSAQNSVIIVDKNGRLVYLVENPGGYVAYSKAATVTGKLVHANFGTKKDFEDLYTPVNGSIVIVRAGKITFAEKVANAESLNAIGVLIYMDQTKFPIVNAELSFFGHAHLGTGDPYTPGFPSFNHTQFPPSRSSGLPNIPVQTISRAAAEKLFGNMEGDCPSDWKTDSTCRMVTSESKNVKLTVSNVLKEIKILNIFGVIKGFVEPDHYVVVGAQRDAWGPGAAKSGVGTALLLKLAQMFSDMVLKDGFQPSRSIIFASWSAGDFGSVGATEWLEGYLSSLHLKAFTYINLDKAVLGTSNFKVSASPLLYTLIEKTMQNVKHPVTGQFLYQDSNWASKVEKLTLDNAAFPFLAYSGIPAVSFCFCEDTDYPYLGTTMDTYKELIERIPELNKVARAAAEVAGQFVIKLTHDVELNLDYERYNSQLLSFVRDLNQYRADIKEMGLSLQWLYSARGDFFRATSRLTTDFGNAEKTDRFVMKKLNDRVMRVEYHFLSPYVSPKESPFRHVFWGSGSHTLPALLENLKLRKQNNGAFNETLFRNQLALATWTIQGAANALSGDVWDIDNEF

human TfR [12] = biological target: T2, human TfR; experiment: ELISA, TfR coated, Fab-Fc fusion
Description: Binding ELISAs were conducted with purified Fab-Fc fusion variants with human or cyno TfR coated on the plate, as described above. The variants from the clone CH3C.18 maturation library, clone CH3C.3.2-1, clone CH3C.3.2-5, and clone CH3C.3.2-19, bound human and cyno TfR with approximately equivalent EC₅₀ values, whereas the parent clones CH3C.18 and CH3C.35 had greater than 10-fold better binding to human versus cyno TfR.

T1 sequence (P56817 22-457): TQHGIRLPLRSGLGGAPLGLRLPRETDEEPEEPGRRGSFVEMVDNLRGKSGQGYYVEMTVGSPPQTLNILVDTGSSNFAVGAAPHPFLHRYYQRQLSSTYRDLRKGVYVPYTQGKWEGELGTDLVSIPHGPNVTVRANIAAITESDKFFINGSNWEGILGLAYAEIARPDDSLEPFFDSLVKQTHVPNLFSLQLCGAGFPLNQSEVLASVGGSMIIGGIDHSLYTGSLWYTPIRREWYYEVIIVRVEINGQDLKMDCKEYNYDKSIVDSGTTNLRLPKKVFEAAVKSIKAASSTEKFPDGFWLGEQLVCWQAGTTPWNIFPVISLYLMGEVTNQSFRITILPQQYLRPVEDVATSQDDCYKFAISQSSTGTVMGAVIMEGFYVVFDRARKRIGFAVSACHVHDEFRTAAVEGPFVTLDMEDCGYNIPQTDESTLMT

B1: 2H8 (antibody, human IgG1, V domains shown)
VH: EVQLQQSGPELVKPGASVKLSCKASGYTFTNFWIHWLKQRPGQGLEWIGMIDPSDSYTKYNQKFKAKATLTVDTSSSTTYMHLSSLTSEDSAVYYCARSGVAFPYWGQRTLVTVSA
VL: DIVMTQSQKFMSKSVGDTVSVTCKASQDVGRNVAWYQQKSGQSPKSLIYSASHRYSGVPDRFTGSGSGTDFTLTISNVQSEDLADYFCQQYNSYPYTFGGGTRLEIK
notes: chimeric, human IgG1/kappa; also called Clone 2H8; 2H8.01
A Kd [1] of 14.8 nM, a koff [1] of 0.000316 s⁻¹ and a kon [1] of 21400 M⁻¹ s⁻¹ were found for B1 in this work. The Kd [2] was 14.8 nM, the “IC50 of Aβ40 formation, primary human neurons” value [3] was 15 nM and the “% Max Inhibition” value [4] was 71%. The “Cellular IC50” value [4] was 16 nM, the “IC50” value [5] was 25 nM and the Max. % inhibition [5] was 82%. The “IC50” value [6] was 24.8 nM, the Max. % inhibition [6] was 82% and the Kd [7] was 6.3 nM. For the same binder, the koff [7] was 0.00019 s⁻¹ and the kon [7] was 30000 M⁻¹ s⁻¹.

B2: hu2H8v29 (antibody, V domains shown)
VH: QVQLVQSGAEVKKPGASVKVSCKASGYTFTNFWIHWVRQAPGQGLEWMGMIDPSDSYTKYNQKFKARATLTVDTSTSTVYMELSSLRSEDTAVYYCARSGVAFPYWGQGTLVTVSS
VL: DIQMTQSPSSLSASVGDRVTITCKASQDVGRNVAWYQQKPGKSPKSLIYSASHRYSGVPSRFSGSGSGTDFTLTISSLQPEDFATYFCQQYNSYPYTFGQGTKVEIK
notes: humanized; also called hu2H8_HC6 + hu2H8_LC5
For B2, the Kd [2] was 12 nM, the “IC50” value [6] was 14.8 nM and the Max. % inhibition [6] was 86%. The Kd [8] was 9.21 nM and the Kd [9] was 9.21 nM.

B3: Clone35.23.4:2H8/2H8 (antibody, V domains shown)
VH: QVQLVQSGAEVKKPGASVKVSCKASGYTFTNFWIHWVRQAPGQGLEWMGMIDPSSSYTKYNQKFKARATLTVDTSTSTVYMELSSLRSEDTAVYYCARSGASLPYWGQGTLVTVSS
VL: DIQMTQSPSSLSASVGDRVTITCKASQDVGRNVAWYQQKPGKSPKSLIYSASHYYSGVPSRFSGSGSGTDFTLTISSLQPEDFATYFCQQYYSYPYTFGQGTKVEIK
B3 was tested, and the “cellular IC50 (human Aβ40, CHO-huAPP cells)” value [10] was 10 nM.

B4: Clone CH3C.21 (designed binder)
chain: APELLGGPSVFLFPPKPKDTLMISRTPEVTCVVVDVSHEDPEVKFNWYVDGVEVHNAKTKPREEQYNSTYRVVSVLTVLHQDWLNGKEYKCKVSNKALPAPIEKTISKAKGQPREPQVYTLPPSRDELTKNQVSLTCLVKGFYPSDIAVEWESLGLVWVGYKTTPPVLDSDGSFFLYSKLTVPKSTWQQGWVFSCSVMHEALHNHYTQKSLSLSPGK
notes: modified Fc polypeptide
B4: binds (human TfR [11]).

B5: Clone CH3C.3.2-1 (designed binder)
chain: APELLGGPSVFLFPPKPKDTLMISRTPEVTCVVVDVSHEDPEVKFNWYVDGVEVHNAKTKPREEQYNSTYRVVSVLTVLHQDWLNGKEYKCKVSNKALPAPIEKTISKAKGQPREPQVYTLPPSRDELTKNQVSLTCLVKGFYPSDIAVEWESLGHVWVNFKTTPPVLDSDGSFFLYSKLTVPKSTWQQGWVFSCSVMHEALHNHYTQKSLSLSPGK
notes: modified Fc polypeptide; tested as purified Fab-Fc fusion, Fab not identified
B5: binds (human TfR [12]).

B6: Clone CH3C.17 (designed binder)
chain: APELLGGPSVFLFPPKPKDTLMISRTPEVTCVVVDVSHEDPEVKFNWYVDGVEVHNAKTKPREEQYNSTYRVVSVLTVLHQDWLNGKEYKCKVSNKALPAPIEKTISKAKGQPREPQVYTLPPSRDELTKNQVSLTCLVKGFYPSDIAVEWESYGTVWSKYKTTPPVLDSDGSFFLYSKLTVSKSEWQQGFVFSCSVMHEALHNHYTQKSLSLSPGK
notes: modified Fc polypeptide
B6: binds (human TfR [11]).

B7: Clone CH3C.25 (designed binder)
chain: APELLGGPSVFLFPPKPKDTLMISRTPEVTCVVVDVSHEDPEVKFNWYVDGVEVHNAKTKPREEQYNSTYRVVSVLTVLHQDWLNGKEYKCKVSNKALPAPIEKTISKAKGQPREPQVYTLPPSRDELTKNQVSLTCLVKGFYPSDIAVEWESMGHVWVGYKTTPPVLDSDGSFFLYSKLTVDKSTWQQGWVFSCSVMHEALHNHYTQKSLSLSPGK
notes: modified Fc polypeptide
B7: binds (human TfR [11]).

B8: Clone CH3C.34 (designed binder)
chain: APELLGGPSVFLFPPKPKDTLMISRTPEVTCVVVDVSHEDPEVKFNWYVDGVEVHNAKTKPREEQYNSTYRVVSVLTVLHQDWLNGKEYKCKVSNKALPAPIEKTISKAKGQPREPQVYTLPPSRDELTKNQVSLTCLVKGFYPSDIAVEWESLGLVWVFSKTTPPVLDSDGSFFLYSKLTVPKSTWQQGWVFSCSVMHEALHNHYTQKSLSLSPGK
notes: modified Fc polypeptide
B8: binds (human TfR [11]).

B9: Clone CH3C.44 (designed binder)
chain: APELLGGPSVFLFPPKPKDTLMISRTPEVTCVVVDVSHEDPEVKFNWYVDGVEVHNAKTKPREEQYNSTYRVVSVLTVLHQDWLNGKEYKCKVSNKALPAPIEKTISKAKGQPREPQVYTLPPSRDELTKNQVSLTCLVKGFYPSDIAVEWESYGTEWSNYKTTPPVLDSDGSFFLYSKLTVSKSEWQQGFVFSCSVMHEALHNHYTQKSLSLSPGK
notes: modified Fc polypeptide
B9: binds (human TfR [11]).

B10: Clone CH3C.51 (designed binder)
chain: APELLGGPSVFLFPPKPKDTLMISRTPEVTCVVVDVSHEDPEVKFNWYVDGVEVHNAKTKPREEQYNSTYRVVSVLTVLHQDWLNGKEYKCKVSNKALPAPIEKTISKAKGQPREPQVYTLPPSRDELTKNQVSLTCLVKGFYPSDIAVEWESLGHVWVGYKTTPPVLDSDGSFFLYSKLTVSKSEWQQGWVFSCSVMHEALHNHYTQKSLSLSPGK
notes: modified Fc polypeptide
B10: binds (human TfR [11]).
